From paper PMC7616283 (Nature cardiovascular research, 2024)
Read-outs that look alike come from different tables or passages of the source.

T1: human CCR4 carried on liposomes (human, UniProt P51679 1-360)
T1 sequence (looked up): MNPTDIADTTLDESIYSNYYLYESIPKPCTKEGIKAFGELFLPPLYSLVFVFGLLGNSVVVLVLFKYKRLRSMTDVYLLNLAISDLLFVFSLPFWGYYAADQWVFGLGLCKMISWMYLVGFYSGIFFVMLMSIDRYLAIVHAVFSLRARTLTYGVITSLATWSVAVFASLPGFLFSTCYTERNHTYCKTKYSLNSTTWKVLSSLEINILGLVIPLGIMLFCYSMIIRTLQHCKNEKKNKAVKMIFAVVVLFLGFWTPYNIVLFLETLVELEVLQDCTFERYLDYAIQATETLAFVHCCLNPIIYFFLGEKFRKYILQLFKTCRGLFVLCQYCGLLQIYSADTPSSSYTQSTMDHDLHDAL


Tests used:
[1] = target: T2, human CCR8 (HA-tagged) on stably transfected HEK293 cells (human, UniProt P51685 1-355); assay: flow cytometry on cells
[2] = target: T3, human CCR8 carried on proteoliposomes (human, UniProt P51685 1-355); assay: SPR
[3] = target: T3, human CCR8 carried on proteoliposomes; assay: SPR; remark: listed apart in the source
[4] = target: T1, human CCR4 carried on liposomes; assay: SPR
[5] = target: T2, human CCR8 (HA-tagged) on stably …; assay: flow cytometry on cells; remark: listed apart in the source

Row | IC50 [1] [nM] | Kd [2] [nM] | Kd [3] [nM] | koff [3] [s⁻¹] | binding result [4] | IC50 [5] [nM] | Binder
1 | 0.58 |  |  |  |  |  | unlabeled human recombinant CCL1 (ligand, UniProt P22362 24-96, looked up) KSMQVPFSRCCFSFAEQEIPLRAILCYRNTSSICSNEGLIFKLKRGKEACALDTVGWVQRHRKMLRHCPSKRK
2 |  | 11.7 | 1.1 ± 0.4 | 0.00042 | binds |  | biotinylated human recombinant CCL17 (ligand, UniProt Q92583 24-94, looked up, biotin (biotinylated; site not stated)) ARGTNVGRECCLEYFKGAIPLRKLKTWYQTSEDCSRDAIVFVTVQGRAICSDPNNKRVKNAVKYLQSLERS
3 | 4.9 |  |  |  |  | 9.4 | unlabeled human recombinant CCL17 (ligand, UniProt Q92583 24-94, looked up) ARGTNVGRECCLEYFKGAIPLRKLKTWYQTSEDCSRDAIVFVTVQGRAICSDPNNKRVKNAVKYLQSLERS
